Test results published in paper PMC7972811 (Cell Reports, 2021).
Residue numbers refer to the chain shown, from its start. In names and notes the source's numbering stands. Read-outs that look alike come from different tables or passages of the source.

Columns and labels:
[1] = molecular target: T1, SARS-CoV-2 spike S2P (ectodomain of the SARS-CoV-2 S trimer) (SARS-CoV-2, ancestral (P0DTC2 sequence), stabilised); assay: cryo-EM structure
[2] = molecular target: T1, SARS-CoV-2 spike S2P (ectodomain of the …); assay: cell-based or functional assay
[3] = molecular target: T1, SARS-CoV-2 spike S2P (ectodomain of the …); assay: SPR
[4] = molecular target: T1, SARS-CoV-2 spike S2P (ectodomain of the …); assay: cryo-EM structure; remark: listed apart in the source
[5] = molecular target: T1, SARS-CoV-2 spike S2P (ectodomain of the …); assay: cryo-EM structure; remark: listed apart in the source

B1: H4 Fab (Fab, V domains shown)
VH: not shown
VL: DIQMTQSPLSLPVTPGEPASISCRSSQSLLDSDDGNTYLDWYLQKPGQSPQLLIYTLSYRASGVPDRFSGSGSGTDFTLKISRVEAEDVGVYYCMQRIEFPLTFGGGTKVEIK
- stoichiometry N [1]: 1 Fab per spike trimer

B2: 2-43 IgG with the paratope somatic hypermutation S76T (heavy chain) reverted to germline (antibody, V domains shown)
VH: not shown
VL: QSALTQPASVSGSPGQSITISCTGTSSDVGGYNYVSWYQQHPGKAPKLMIYDVSKRPSGVSNRFSGSKSGNTASLTISGLQAEDEGDYYCSSYTSSSTWVFGGGTKLTVL
- pseudovirus neutralization potency, fold reduction against 2-43 IgG [2]: ~5 fold
- fold reduction of IgG-apparent binding affinity against 2-43 IgG [3]: ~6 fold

B3: 2-15 IgG with the paratope somatic hypermutation N53I (heavy chain) reverted to germline (antibody, V domains shown)
VH: QVQLVQSGAEVKKPGASVRVSCKASGYTFTGYYMHWVRQAPGQGLEWMGWINPNSDGTNYAQKFQGWVTMTRDTSISTVYMELSRLRSDDTAVYYCARGGSRCSGGNCYGWAYDAFDIWGQGTMITVSS
VL: B2 VL with Y34F, G86A, Y88C, W99F, G103T, L107V
- pseudovirus neutralization potency, fold reduction against 2-15 IgG [2]: 217 fold
- fold reduction of binding affinity against 2-15 IgG [3]: 56 fold

B4: 2-43 Fab (Fab, V domains shown)
VH: not shown
VL: B2 VL
- neutralization potency of the Fab, fold less than its IgG form [2]: ~140 fold
- stoichiometry N [4]: 3 Fab per spike trimer

B5: 2-15 Fab (Fab, V domains shown)
VH: B3 VH with N54I
VL: B2 VL with Y34F, G86A, Y88C, W99F, G103T, L107V
- neutralization potency of the Fab, fold less than its IgG form [2]: ~95 fold
- stoichiometry N [5]: 1 Fab per spike trimer

B6: 2-4 IgG with the somatic hypermutation A60T (heavy chain) reverted to germline (antibody, V domains shown)
VH: not shown
VL: QSALTQPPSASGSPGQSVTISCTGTSSDVGGYNYVSWYQQHPGKAPKLMIYEVSKRPSGVPDRFSGSKSGNTASLTVSGLQAEDEADYYCSSYAGSNNLVFGGGTKLTVL
- pseudovirus neutralization, fold reduction against 2-4 IgG [2]: ~9 fold
- fold reduction of binding affinity against 2-4 IgG [3]: ~6 fold
